# Reference: patent US20250215083A1 (JIANGSU HENGRUI PHARMACEUTICALS, published 2025)
# Where a chain is given by its changes, count along the chain named.
# B1: F2-3 (bispecific antibody)
# heavy 1: not shown
# light 1: DIQMTQSPSSVSASVGDRVTITCKASQNVGSNVAWYQQKPGKAPKALIYSASYRYSGVPSRFSGSGSGTDFTLTISSLQPEDFATYYCHQYNSYPPTFGQGTKLEIKRTVAAPSVFIFPPSDEQLKSGTASVVCLLNNFYPREAKVQWKVDNALQSGNSQESVTEQDSKDSTYSLSSTLTLSKADYEKHKVYACEVTHQGLSSPVTKSFNRGEC
# heavy 2: not shown
# light 2: not shown
# B2: F4-7 (bispecific antibody)
# heavy 1: not shown
# light 1: not shown
# heavy 2: EVQLVQSGAEVKKPGASVKVSCKASGYSFTGYTMNWVRQAPGKRPEWMGLINPYTGGTRNNQKFKDRVTLTVDKSASTAYMELSSLRSEDTAVYYCTRWGLRLAMDYWGQGTTVTVSSASTKGPSVFPLAPSSKSTSGGTAALGCLVKDYFPEPVTVSWNSGALTSGVHTFPAVLQSSGLYSLSSVVTVPSSSLGTQTYICNVNHKPSNTKVDKKVEPKSCDKTHTCPPCPAPEAAGGPSVFLFPPKPKDTLMISRTPEVTCVVVDVSHEDPEVKFNWYVDGVEVHNAKTKPREEQYNSTYRVVSVLTVLHQDWLNGKEYKCKVSNKALPAPIEKTISKAKGQPREPQVCTLPPSRDELTKNQVSLSCAVKGFYPSDIAVEWESNGQPENNYKTTPPVLDSDGSFFLVSKLTVDKSRWQQGNVFSCSVMHEALHNHYTQKSLSLSPGK
# light 2: B1 light 1
# B3: F2-2 (bispecific antibody)
# heavy 1: not shown
# light 1: DVVLTQSPLSLPVTLGQPASISCKSSQSLLHSSGKTYLNWLLQRPGQSPRRLIYLVSKLDSGVPDRFSGSGSGTDFTLKISRVEAEDVGVYYCAQGTHFPRTFGGGTKVEIKRTVAAPSVFIFPPSDEQLKSGTASVVCLLNNFYPREAKVQWKVDNALQSGNSQESVTEQDSKDSTYSLSSTLTLSKADYEKHKVYACEVTHQGLSSPVTKSFNRGEC
# heavy 2: not shown
# light 2: not shown
# B4: PL-4 (bispecific antibody)
# chain 1: not shown
# chain 2: DIVLTQSPASLAVSPGQRATITCRASESVSIHGTHLMHWYQQKPGQPPKLLIYAASKLESGVPARFSGSGSGTDFTLTINPVEAEDTANYYCQQSFEDPLTFGQGTKLEIKGGGGSGIPPKIECLPIDISIDEGKVLTVASCFTGEPTPEVTWSTGGRKIHSQEQGRFHIENTDDSTTLTIKDVQKQDGGLYTLTLRNEFGSDSATVNIHIRSI
# chain 3: not shown
# chain 4: not shown
# B5: PL-18 (bispecific antibody)
# chain 1: not shown
# chain 2: B4 chain 2 with G112R, G113T, G114V, G115A, V136C, C142A
# chain 3: not shown
# chain 4: not shown
# B6: PL-7 (bispecific antibody)
# chain 1: not shown
# chain 2: B4 chain 2
# chain 3: not shown
# chain 4: not shown
# B7: PL-5 (bispecific antibody)
# chain 1: not shown
# chain 2: B4 chain 2 with C142A
# chain 3: not shown
# chain 4: not shown
# B8: PL-11 (bispecific antibody)
# chain 1: not shown
# chain 2: B4 chain 2 with G112R, G113T, G114V, G115A, C142A
# chain 3: not shown
# chain 4: not shown
# B9: PL-17 (bispecific antibody)
# chain 1: not shown
# chain 2: B4 chain 2 with G112R, G113T, G114V, G115A, C142A
# chain 3: not shown
# chain 4: not shown
# B10: PL-14 (bispecific antibody)
# chain 1: not shown
# chain 2: B4 chain 2 with G112R, G113T, G114V, G115A, C142A
# chain 3: not shown
# chain 4: not shown
# B11: PL-8 (bispecific antibody)
# chain 1: not shown
# chain 2: B4 chain 2 with C142A
# chain 3: not shown
# chain 4: not shown
# B12: PL-15 (bispecific antibody)
# chain 1: not shown
# chain 2: B4 chain 2 with G112R, G113T, G114V, G115A, V136C, C142A
# chain 3: not shown
# chain 4: not shown
# B13: PL-19 (bispecific antibody)
# chain 1: not shown
# chain 2: B4 chain 2 with G112R, G113T, G114V, G115A
# chain 3: not shown
# chain 4: not shown
# B14: PL-12 (bispecific antibody)
# chain 1: not shown
# chain 2: B4 chain 2 with G112R, G113T, G114V, G115A, V136C, C142A
# chain 3: not shown
# chain 4: not shown
# B15: PL-9 (bispecific antibody)
# chain 1: not shown
# chain 2: B4 chain 2 with V136C, C142A
# chain 3: not shown
# chain 4: not shown
# B16: PL-10 (bispecific antibody)
# chain 1: not shown
# chain 2: B4 chain 2
# chain 3: not shown
# chain 4: not shown
# B17: PL-6 (bispecific antibody)
# chain 1: not shown
# chain 2: B4 chain 2 with V136C, C142A
# chain 3: not shown
# chain 4: not shown
# B18: PL-13 (bispecific antibody)
# chain 1: not shown
# chain 2: B4 chain 2 with G112R, G113T, G114V, G115A
# chain 3: not shown
# chain 4: not shown
# B19: HJ-3 (bispecific antibody)
# chain 1: not shown
# chain 2: DIQMTQSPSSVSASVGDRVTITCRASQDIANYLSWYQQKPGKSPKLLIYGTSNLEVGVPSRFSGSRSGTDFTLTISSLQPEDFATYYCLQDKEFPRTFGGGTKVEIKGGGGSSGAPRFLTRPLAFVVSVGKDATLSSQIVGNPTPQVSWEKDKQPVTAGARFRLAQDGDLYRLKILDLQLSDSGQYVSRARNAIGEAFACLGLQVDAEA
# chain 3: EVQLVQSGAEVKKPGSSVKVSCKASGYTFSNYLIEWVRQAPGQGLEWIGVIDPGVGDTNYNENFKGRATLTADKSTSTAYIELSSLRSEDTAVYYCAREDNTGTAFDYWGQGTTVTVSSASTKGPSVFPLAPSSKSTSGGTAALGCLVKDYFPEPVTVSWNSGALTSGVHTFPAVLQSSGLYSLSSVVTVPSSSLGTQTYICNVNHKPSNTKVDKKVEPKSCDKTHTCPPCPAPEAAGGPSVFLFPPKPKDTLMISRTPEVTCVVVDVSHEDPEVKFNWYVDGVEVHNAKTKPREEQYNSTYRVVSVLTVLHQDWLNGKEYKCKVSNKALPAPIEKTISKAKGQPREPQVCTLPPSREEMTKNQVSLSCAVKGFYPSDIAVEWESNGQPENNYKTTPPVLDSDGSFFLVSKLTVDKSRWQQGNVFSCSVMHEALHNHYTQKSLSLSPGKDYKDDDDK
# chain 4: SIVMTQTPLSLSVTPGQPASISCKASQSVSSDVTWYLQKPGQSPQLLIYYVSEHYTGVPDRFSGSGYGTDFTLKISRVEAEDVGVYYCQQHHRFPLTFGQGTKLEIKRTVAAPSVFIFPPSDEQLKSGTASVVCLLNNFYPREAKVQWKVDNALQSGNSQESVTEQDSKDSTYSLSSTLTLSKADYEKHKVYACEVTHQGLSSPVTKSFNRGEC
# B20: HJ-10 (bispecific antibody)
# chain 1: not shown
# chain 2: DIQMTQSPSSVSASVGDRVTITCRASQDIANYLSWYQQKPGKSPKLLIYGTSNLEVGVPSRFSGSRSGTDFTLTISSLQPEDFATYYCLQDKEFPRTFGGGTKVEIKRTVASSGAPRFLTRPKASVVSVGKDATLSCQIVGNPFPQVSWEKDKQPVTAGVRFRLAQDGDLYRLKILDLQLSDSGQYVCRARNAHGEAFACLGLQVDAEA
# chain 3: EVQLVQSGAEVKKPGSSVKVSCKASGYTFSNYLIEWVRQAPGQGLEWIGVIDPGVGDTNYNENFKGRATLTADKSTSTAYIELSSLRSEDTAVYYCAREDNTGTAFDYWGQGTTVTVSSASTKGPSVFPLAPSSKSTSGGTAALGCLVKDYFPEPVTVSWNSGALTSGVHTFPAVLQSSGLYSLSSVVTVPSSSLGTQTYICNVNHKPSNTKVDKKVEPKSCDKTHTCPPCPAPEAAGGPSVFLFPPKPKDTLMISRTPEVTCVVVDVSHEDPEVKFNWYVDGVEVHNAKTKPREEQYNSTYRVVSVLTVLHQDWLNGKEYKCKVSNKALPAPIEKTISKAKGQPREPQVCTLPPSREEMTKNQVSLSCAVKGFYPSDIAVEWESNGQPENNYKTTPPVLDSDGSFFLVSKLTVDKSRWQQGNVFSCSVMHEALHNHYTQKSLSLSPGK
# chain 4: B19 chain 4
# B21: HJ-5 (bispecific antibody)
# chain 1: not shown
# chain 2: B19 chain 2 with L123K, F125S, T144F, A160V, I194H
# chain 3: B20 chain 3
# chain 4: B19 chain 4
# B22: HJ-11 (bispecific antibody)
# chain 1: not shown
# chain 2: B20 chain 2 with A115C
# chain 3: B20 chain 3
# chain 4: B19 chain 4
# B23: HJ-6 (bispecific antibody)
# chain 1: not shown
# chain 2: B19 chain 2 with R121C, L123K, F125S, T144F, A160V, I194H
# chain 3: B20 chain 3
# chain 4: B19 chain 4
# B24: HJ-7 (bispecific antibody)
# chain 1: not shown
# chain 2: B20 chain 2 with R108G, T109G, V110G, A111G
# chain 3: B20 chain 3
# chain 4: B19 chain 4
# B25: HJ-9 (bispecific antibody)
# chain 1: not shown
# chain 2: B20 chain 2 with R121C, C137S, C188S
# chain 3: B20 chain 3
# chain 4: B19 chain 4
# B26: HJ-8 (bispecific antibody)
# chain 1: not shown
# chain 2: B20 chain 2 with C137S, C188S
# chain 3: B20 chain 3
# chain 4: B19 chain 4
# Target: human GPRC5D (human, UniProt Q9NZD1 1-345)
# Experiment: cell-based or functional assay
# Sequence of human GPRC5D (Q9NZD1 whole entry): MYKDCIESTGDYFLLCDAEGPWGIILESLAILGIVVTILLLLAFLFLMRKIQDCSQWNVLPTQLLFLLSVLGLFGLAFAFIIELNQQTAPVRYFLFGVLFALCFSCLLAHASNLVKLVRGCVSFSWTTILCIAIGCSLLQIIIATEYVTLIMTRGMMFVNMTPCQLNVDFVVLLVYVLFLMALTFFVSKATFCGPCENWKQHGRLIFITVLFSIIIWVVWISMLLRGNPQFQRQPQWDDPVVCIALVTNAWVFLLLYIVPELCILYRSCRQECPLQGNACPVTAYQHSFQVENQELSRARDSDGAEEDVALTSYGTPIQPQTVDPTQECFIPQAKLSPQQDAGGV
Binder,"EC50 ratio (relative to JNJ-64407564), cytotoxic activity against NCI-H929","Lysis rate %, cytotoxic activity against NCI-H929"
B1,0.08,61.5%
B2,0.16,68.3%
B3,0.26,64.3%

# Target: T1, hPDL1 (human, UniProt Q9NZQ7 19-238)
# T1 construct: purchased from Sino biology
# Experiment: ELISA per WO2021139758 Test Example 4
# T1 sequence (Q9NZQ7 19-238 limits assumed): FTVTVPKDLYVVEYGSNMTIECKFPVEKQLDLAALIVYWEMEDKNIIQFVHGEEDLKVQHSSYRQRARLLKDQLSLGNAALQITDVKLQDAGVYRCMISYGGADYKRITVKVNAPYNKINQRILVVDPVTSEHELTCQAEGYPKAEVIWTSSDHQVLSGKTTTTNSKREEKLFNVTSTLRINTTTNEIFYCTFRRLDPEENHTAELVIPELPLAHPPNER
row,Binder,EC50
1,B4,0.7 nM
2,B5,1.6 nM
3,B6,0.5 nM
4,B7,0.7 nM
5,B8,0.6 nM
6,B9,1.4 nM
7,B10,1.3 nM
8,B11,1.4 nM
9,B12,1.4 nM
10,B13,1.6 nM
11,B14,0.5 nM
12,B15,0.6 nM
13,B16,0.6 nM
14,B17,0.8 nM
15,B18,0.5 nM

# Target: T2, hCTLA4 (human, UniProt P16410 36-161)
# T2 construct: purchased from Sino biology
# Experiment: ELISA per WO2021139758 Test Example 4
# T2 sequence (P16410 36-161 limits assumed): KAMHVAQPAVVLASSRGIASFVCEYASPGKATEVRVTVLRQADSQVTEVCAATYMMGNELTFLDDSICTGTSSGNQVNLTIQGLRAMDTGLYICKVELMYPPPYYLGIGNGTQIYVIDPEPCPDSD
row,Binder,EC50
1,B4,6.5 nM
2,B5,6.7 nM
3,B6,7.3 nM
4,B7,6.7 nM
5,B8,5.6 nM
6,B9,6.2 nM
7,B10,6 nM
8,B11,14.5 nM
9,B12,3.2 nM
10,B13,6.5 nM
11,B14,8 nM
12,B15,5.5 nM
13,B16,6.9 nM
14,B17,5.3 nM
15,B18,4.4 nM

# Target: hIL5 (human, UniProt P05113 20-134)
# Experiment: ELISA per WO2021139758 Test Example 4
row,Binder,EC50
1,B19,17.4 nM
2,B20,20.8 nM
3,B21,16 nM
4,B22,9.46 nM
5,B23,37 nM
6,B24,17.7 nM
7,B25,10.9 nM
8,B26,18.7 nM

# Target: hTSLP (human, UniProt Q969D9 29-159)
# Experiment: ELISA per WO2021139758 Test Example 4
row,Binder,EC50
1,B19,3.23 nM
2,B20,3.17 nM
3,B21,2.64 nM
4,B22,3 nM
5,B23,2.88 nM
6,B24,2.18 nM
7,B25,3.18 nM
8,B26,3.33 nM
